These results are taken from patent publication US20230287095A1 (published 2023).

T1: human pro-EMAPII (human, UniProt Q12904 1-312)
T1 chain: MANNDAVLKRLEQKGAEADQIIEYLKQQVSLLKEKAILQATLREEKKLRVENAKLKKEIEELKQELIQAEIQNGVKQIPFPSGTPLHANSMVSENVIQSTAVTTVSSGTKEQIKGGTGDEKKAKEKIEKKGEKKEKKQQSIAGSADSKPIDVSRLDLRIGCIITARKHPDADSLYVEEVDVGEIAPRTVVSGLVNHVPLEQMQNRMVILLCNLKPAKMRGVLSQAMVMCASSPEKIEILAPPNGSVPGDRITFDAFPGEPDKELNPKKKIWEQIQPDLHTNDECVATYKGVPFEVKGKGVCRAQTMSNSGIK

B1: Rat parental (antibody, V domains shown)
VH: AVHLVESGGGFVQPTESLKISCAASGFTFSDAAMYWVRQAPGKGLEWVARIRTKPNNYATYYADSVKGRFTISRDDSKSMVYLQMDNLKTEDTAMYYCTSWSYDFDYWGQGVMVTVSS
VL: DIVMTQGALPNPVPSGESASITCQSSKSLLHSSGKTYLNWYLQRPGQSPHLLIYWMSTRASGVSDRLSGSGSGTDFTLKISSVEAEDVGVYYCQQFLEYPLTFGSGTKLEIK
B2: Chimeric Parental (antibody, V domains shown)
VH: B1 VH
VL: B1 VL
B3: Humanized HC3 + LC3 (antibody)
heavy: not shown
light: DIVMTQSPLSLPVTPGEPASISCRSSKSLLHSSGKTYLNWYLQKPGQSPQLLIYWMSTRASGVPDRFSGSGSGTDFTLKISRVEAEDVGVYYCQQFLEYPLTFGGGTKVEIKRTVAAPSVFIFPPSDEQLKSGTASVVCLLNNFYPREAKVQWKVDNALQSGNSQESVTEQDSKDSTYSLSSTLTLSKADYEKHKVYACEVTHQGLSSPVTKSFNRGEC
B4: Humanized HC5 + LC3 (antibody)
heavy: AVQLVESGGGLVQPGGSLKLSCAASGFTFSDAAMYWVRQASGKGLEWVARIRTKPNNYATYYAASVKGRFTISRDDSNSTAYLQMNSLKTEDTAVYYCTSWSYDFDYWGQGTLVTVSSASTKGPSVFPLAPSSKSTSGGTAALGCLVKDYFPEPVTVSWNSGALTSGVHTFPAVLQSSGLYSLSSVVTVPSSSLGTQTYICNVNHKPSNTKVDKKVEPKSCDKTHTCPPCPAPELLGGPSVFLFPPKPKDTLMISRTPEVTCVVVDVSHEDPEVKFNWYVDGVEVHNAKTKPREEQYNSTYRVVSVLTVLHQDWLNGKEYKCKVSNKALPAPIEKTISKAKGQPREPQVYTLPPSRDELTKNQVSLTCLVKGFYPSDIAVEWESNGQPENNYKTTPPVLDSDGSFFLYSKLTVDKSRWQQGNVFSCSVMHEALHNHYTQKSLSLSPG
light: B3 light
B5: Humanized HC2 + LC3 (antibody)
heavy: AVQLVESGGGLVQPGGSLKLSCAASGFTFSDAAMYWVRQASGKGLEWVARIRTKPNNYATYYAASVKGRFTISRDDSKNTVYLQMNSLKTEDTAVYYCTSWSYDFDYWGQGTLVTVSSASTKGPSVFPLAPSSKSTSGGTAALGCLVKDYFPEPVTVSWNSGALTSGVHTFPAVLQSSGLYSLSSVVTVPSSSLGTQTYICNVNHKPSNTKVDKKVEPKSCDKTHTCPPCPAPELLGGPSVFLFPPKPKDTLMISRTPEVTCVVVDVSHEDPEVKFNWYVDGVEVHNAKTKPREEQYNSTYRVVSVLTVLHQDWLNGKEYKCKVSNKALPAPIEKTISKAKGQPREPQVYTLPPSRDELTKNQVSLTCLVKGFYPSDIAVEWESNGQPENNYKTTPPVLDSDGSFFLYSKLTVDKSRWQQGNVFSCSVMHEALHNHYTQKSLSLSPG
light: B3 light
B6: Humanized HC1 + LC3 (antibody)
heavy: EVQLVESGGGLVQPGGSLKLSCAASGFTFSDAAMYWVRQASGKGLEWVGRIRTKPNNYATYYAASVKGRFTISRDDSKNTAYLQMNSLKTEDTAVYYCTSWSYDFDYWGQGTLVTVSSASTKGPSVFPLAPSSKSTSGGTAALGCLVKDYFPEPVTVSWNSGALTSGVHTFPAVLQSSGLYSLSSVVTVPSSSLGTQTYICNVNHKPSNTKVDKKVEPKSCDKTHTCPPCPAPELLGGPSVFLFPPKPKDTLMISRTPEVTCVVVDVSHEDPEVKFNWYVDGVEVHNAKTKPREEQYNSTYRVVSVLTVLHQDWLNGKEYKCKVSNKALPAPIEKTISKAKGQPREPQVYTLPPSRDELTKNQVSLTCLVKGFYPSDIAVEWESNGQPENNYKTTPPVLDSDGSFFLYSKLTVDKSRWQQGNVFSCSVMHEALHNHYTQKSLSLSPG
light: B3 light
B7: Humanized HC4 + LC3 (antibody)
heavy: not shown
light: B3 light
B8: Humanized HC2 + LC4 (antibody)
heavy: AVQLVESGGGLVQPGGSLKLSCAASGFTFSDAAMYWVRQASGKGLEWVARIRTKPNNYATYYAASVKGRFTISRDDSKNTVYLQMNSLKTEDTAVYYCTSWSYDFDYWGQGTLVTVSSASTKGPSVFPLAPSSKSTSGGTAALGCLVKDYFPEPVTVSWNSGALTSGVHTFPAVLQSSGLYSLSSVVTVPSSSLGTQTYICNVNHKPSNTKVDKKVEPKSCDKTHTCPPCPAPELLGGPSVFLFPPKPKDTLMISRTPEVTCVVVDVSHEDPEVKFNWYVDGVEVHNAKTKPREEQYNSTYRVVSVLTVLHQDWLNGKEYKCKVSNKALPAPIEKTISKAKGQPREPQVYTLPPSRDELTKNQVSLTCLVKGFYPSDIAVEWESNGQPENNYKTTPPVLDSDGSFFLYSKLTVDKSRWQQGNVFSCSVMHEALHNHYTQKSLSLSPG
light: B3 light with V3Q
B9: Humanized HC5 + LC4 (antibody)
heavy: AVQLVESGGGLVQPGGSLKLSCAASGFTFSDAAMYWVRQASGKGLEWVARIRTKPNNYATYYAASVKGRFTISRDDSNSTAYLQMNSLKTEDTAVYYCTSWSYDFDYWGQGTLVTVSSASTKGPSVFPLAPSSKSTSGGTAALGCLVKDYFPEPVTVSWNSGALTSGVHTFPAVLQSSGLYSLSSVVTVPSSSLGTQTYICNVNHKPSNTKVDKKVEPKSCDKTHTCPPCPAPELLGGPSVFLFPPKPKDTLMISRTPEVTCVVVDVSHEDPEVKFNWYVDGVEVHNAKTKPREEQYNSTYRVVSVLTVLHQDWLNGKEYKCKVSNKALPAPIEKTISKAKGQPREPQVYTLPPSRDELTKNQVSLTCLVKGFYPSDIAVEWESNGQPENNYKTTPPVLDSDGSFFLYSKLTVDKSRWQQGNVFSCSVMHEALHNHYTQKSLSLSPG
light: B3 light with V3Q
B10: Humanized HC4 + LC4 (antibody)
heavy: not shown
light: B3 light with V3Q
B11: Humanized HC3 + LC4 (antibody)
heavy: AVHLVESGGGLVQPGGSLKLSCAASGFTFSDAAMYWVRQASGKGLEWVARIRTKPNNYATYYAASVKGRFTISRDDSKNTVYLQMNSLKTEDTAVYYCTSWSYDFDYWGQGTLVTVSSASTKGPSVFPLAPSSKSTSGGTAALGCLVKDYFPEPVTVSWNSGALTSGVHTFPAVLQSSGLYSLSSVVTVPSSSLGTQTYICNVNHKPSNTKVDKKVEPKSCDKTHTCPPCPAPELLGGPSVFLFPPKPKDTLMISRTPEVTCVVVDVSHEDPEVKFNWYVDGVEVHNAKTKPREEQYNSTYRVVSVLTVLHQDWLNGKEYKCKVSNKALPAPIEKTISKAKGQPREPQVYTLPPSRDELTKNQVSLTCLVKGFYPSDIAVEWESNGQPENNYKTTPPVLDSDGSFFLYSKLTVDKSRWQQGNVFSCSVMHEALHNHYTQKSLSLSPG
light: B3 light with V3Q
B12: Humanized HC1 + LC4 (antibody)
heavy: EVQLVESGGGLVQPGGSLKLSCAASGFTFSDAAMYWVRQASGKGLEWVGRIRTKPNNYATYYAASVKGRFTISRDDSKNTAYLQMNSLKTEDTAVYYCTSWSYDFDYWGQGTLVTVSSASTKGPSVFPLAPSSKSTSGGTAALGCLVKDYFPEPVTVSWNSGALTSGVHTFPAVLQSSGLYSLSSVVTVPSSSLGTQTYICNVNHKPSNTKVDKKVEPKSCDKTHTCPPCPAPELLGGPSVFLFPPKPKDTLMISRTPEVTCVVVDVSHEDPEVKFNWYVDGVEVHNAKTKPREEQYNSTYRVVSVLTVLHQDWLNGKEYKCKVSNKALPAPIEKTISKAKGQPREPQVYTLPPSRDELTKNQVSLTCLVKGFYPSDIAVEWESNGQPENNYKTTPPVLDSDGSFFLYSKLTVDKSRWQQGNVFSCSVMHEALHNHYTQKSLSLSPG
light: B3 light with V3Q
B13: Humanized HC5 + LC2 (antibody)
heavy: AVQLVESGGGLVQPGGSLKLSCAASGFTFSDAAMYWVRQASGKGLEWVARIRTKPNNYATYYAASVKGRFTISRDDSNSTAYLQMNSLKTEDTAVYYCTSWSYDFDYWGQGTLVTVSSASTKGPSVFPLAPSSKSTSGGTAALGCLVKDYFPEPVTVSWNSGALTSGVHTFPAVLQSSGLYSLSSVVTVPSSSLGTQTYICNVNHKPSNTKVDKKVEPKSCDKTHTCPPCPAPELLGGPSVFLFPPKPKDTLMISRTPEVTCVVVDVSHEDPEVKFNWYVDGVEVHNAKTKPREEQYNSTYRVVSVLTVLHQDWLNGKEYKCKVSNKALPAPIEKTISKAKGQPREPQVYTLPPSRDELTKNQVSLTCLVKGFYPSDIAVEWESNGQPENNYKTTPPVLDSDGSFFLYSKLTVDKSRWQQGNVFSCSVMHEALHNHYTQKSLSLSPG
light: B3 light with G105Q, V109L
B14: Humanized HC4 + LC2 (antibody)
heavy: not shown
light: B3 light with G105Q, V109L
B15: Humanized HC3 + LC2 (antibody)
heavy: not shown
light: B3 light with G105Q, V109L
B16: Humanized HC2 + LC2 (antibody)
heavy: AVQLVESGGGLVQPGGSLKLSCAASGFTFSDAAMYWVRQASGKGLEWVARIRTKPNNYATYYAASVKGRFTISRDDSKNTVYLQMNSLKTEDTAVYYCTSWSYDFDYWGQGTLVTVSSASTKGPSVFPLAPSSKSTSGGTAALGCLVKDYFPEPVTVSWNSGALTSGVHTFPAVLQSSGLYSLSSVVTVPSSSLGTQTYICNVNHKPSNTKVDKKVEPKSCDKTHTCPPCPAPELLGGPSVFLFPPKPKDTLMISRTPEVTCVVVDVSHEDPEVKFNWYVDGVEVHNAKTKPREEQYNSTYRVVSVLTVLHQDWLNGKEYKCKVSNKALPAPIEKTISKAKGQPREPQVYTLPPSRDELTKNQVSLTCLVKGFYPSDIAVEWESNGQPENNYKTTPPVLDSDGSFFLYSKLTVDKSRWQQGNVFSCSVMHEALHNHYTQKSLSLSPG
light: B3 light with G105Q, V109L
B17: Humanized HC1 + LC2 (antibody)
heavy: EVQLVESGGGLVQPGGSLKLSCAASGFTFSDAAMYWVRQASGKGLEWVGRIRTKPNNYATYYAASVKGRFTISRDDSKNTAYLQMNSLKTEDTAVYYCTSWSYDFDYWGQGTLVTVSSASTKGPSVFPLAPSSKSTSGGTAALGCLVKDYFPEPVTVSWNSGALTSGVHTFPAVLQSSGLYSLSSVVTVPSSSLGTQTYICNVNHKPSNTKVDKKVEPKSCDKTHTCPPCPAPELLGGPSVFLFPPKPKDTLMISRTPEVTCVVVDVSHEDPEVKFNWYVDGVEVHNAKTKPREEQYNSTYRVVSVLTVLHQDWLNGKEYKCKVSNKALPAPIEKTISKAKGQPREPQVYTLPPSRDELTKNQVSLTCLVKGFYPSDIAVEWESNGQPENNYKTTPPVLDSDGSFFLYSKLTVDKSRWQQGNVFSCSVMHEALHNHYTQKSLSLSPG
light: B3 light with G105Q, V109L
B18: Humanized HC3 + LC1 (antibody)
heavy: not shown
light: B3 light with T58N, G105Q, V109L
B19: Humanized HC2 + LC1 (antibody)
heavy: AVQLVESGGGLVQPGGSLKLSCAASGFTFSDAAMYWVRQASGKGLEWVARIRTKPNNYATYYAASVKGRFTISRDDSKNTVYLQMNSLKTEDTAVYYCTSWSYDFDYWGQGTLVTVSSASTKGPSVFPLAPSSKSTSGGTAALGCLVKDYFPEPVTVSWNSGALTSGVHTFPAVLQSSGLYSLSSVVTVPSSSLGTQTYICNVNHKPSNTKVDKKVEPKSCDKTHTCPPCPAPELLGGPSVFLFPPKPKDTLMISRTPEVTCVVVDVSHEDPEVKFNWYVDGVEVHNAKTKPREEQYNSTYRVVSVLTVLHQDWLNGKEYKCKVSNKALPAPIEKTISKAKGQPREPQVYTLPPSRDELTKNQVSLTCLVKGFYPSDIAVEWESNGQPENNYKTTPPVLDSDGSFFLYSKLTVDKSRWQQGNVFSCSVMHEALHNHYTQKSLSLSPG
light: B3 light with T58N, G105Q, V109L
B20: Humanized HC5 + LC1 (antibody, V domains shown)
VH: AVQLVESGGGLVQPGGSLKLSCAASGFTFSDAAMYWVRQASGKGLEWVARIRTKPNNYATYYAASVKGRFTISRDDSNSTAYLQMNSLKTEDTAVYYCTSWSYDFDYWGQGTLVTVSS
VL: DIVMTQSPLSLPVTPGEPASISCRSSKSLLHSSGKTYLNWYLQKPGQSPQLLIYWMSNRASGVPDRFSGSGSGTDFTLKISRVEAEDVGVYYCQQFLEYPLTFGQGTKLEIKR
B21: Humanized HC1 + LC1 (antibody, V domains shown)
VH: B20 VH with A1E, A49G, N78K, S79N
VL: B20 VL
B22: Humanized HC4 + LC1 (antibody, V domains shown)
VH: B20 VH with A1E, M34I
VL: B20 VL

Positions count from the first letter of the chain named.

One test deals with T1, human pro-EMAPII. The experiment in a line: ELISA.
Regarding B1, the EC50 amounted to 3.39 µg/mL.
On the same count and under the same terms, for B2 the value was 0.329 µg/mL; for B3, 0.077 µg/mL.
On the same count and under the same terms, for B4 the value was 0.2 µg/mL.
As for B5, the EC50 was found to be 0.075 µg/mL. Against the preceding molecule, the EC50 is about 2.7-fold lower.
Consider B6, for which the concentration giving a half-maximal response (EC50) came to 0.108 µg/mL.
On the same count and under the same terms, for B7 the value was 0.229 µg/mL.

The target in the next test is T1, human pro-EMAPII. The experiment in a line: ELISA. This is another data set of the same source.
Molecule B1 gave an EC50 of 3.39 µg/mL.
In turn, B2 displayed an EC50 of 0.329 µg/mL.
Same read-out and setting: under B8 stands 0.078 µg/mL; under B9, 0.166 µg/mL; under B10, 0.197 µg/mL.
On to B11, for which a half-maximal response (EC50) required 0.07 µg/mL.
Consider B12, for which it took 0.113 µg/mL to reach a half-maximal effect (EC50).

The target of a further test is T1, human pro-EMAPII. The experiment in a line: ELISA. The source holds these as a separate data set.
In the case of B1, the EC50 was determined as 3.6 µg/mL.
Molecule B2 had a concentration for a half-maximal effect (EC50) of 0.361 µg/mL.
Same read-out and setting: under B13 stands 0.17 µg/mL.
Still for that read-out and setting: under B14 stands 0.271 µg/mL; under B15, 0.081 µg/mL.
Same read-out and setting: under B16 stands 0.112 µg/mL.
Molecule B17 returned an EC50 of 0.089 µg/mL. The EC50 values of the last two molecules are within 1.5-fold of each other.

The target in a further test is T1, human pro-EMAPII. The experiment in a line: ELISA. The source holds these as a separate data set.
B1 registered an EC50 of 3.6 µg/mL.
The same measure, in the same setting: for B2 the value was 0.361 µg/mL.
On the same count and under the same terms, under B18 stands 0.082 µg/mL; under B19, 0.076 µg/mL.
For B20, the EC50 came to 0.163 µg/mL. This EC50 is about 2.1-fold higher than that of the molecule before.
On the same count and under the same terms, under B21 stands 0.098 µg/mL.
B22 registered an EC50 of 0.198 µg/mL. Compared with the last molecule, the EC50 is about 2-fold higher.
